Assay results published in patent publication US20220177581A1 (Memorial Sloan Kettering, published 2022).

T1: CD22 (antigen in the Biacore assay) (human, UniProt P20273 20-687, limits assumed)
T1 sequence: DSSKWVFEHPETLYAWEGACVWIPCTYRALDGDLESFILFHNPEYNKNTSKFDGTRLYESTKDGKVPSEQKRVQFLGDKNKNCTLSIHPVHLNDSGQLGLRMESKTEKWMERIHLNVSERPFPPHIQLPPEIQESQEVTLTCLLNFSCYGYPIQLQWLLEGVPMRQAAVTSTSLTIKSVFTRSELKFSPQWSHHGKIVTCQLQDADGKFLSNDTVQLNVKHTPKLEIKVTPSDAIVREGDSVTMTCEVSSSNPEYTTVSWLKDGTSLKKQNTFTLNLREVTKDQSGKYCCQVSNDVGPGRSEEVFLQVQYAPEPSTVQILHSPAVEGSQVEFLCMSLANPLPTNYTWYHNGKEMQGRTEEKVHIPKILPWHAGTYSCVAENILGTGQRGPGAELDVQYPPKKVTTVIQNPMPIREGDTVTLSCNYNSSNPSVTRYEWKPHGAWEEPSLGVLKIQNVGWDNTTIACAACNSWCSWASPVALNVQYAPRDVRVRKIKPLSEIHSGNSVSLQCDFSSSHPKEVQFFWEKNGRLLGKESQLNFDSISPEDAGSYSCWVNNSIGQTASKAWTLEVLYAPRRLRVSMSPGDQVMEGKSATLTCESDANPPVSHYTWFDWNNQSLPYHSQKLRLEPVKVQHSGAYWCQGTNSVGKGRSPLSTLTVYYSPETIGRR

T2: CD22 (UniProtKB-P20273) on CD22(+) cells (human, UniProt P20273 20-847)
T2 construct: Endogenous CD22 on the NALM6 and Raji cell lines; also called SIGLEC-2; BL-CAM
T2 sequence: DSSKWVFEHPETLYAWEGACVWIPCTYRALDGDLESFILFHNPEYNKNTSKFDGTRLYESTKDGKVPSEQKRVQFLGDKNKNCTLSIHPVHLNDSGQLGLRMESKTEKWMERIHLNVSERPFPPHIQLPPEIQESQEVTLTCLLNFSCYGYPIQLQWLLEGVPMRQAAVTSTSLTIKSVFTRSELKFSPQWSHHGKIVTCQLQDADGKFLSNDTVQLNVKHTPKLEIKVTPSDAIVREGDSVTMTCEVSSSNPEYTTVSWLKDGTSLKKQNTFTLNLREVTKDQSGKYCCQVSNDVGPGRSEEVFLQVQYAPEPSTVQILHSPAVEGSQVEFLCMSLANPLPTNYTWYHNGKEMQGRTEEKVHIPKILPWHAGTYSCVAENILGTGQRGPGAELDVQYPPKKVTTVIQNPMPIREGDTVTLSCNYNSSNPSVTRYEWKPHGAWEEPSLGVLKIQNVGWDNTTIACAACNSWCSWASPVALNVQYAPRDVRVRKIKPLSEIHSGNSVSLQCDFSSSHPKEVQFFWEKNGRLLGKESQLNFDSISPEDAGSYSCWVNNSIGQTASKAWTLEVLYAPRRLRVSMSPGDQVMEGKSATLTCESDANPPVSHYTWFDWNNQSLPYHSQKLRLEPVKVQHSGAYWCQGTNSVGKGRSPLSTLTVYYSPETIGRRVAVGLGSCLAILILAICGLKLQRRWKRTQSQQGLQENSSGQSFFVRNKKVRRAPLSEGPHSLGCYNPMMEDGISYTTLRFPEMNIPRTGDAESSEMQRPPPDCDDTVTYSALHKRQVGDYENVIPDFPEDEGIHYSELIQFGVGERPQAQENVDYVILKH


These binders were tested against T1, CD22 (antigen in the Biacore assay) (assay: SPR (Biacore) at 37° C).

Binder | Kd | koff | kon
chimeric LL2 antibody (antibody, V domains shown, Murine LL2 variable domains with human constant domains (IgG1)) VH: QVQLQESGAELSKPGASVKMSCKASGYTFTSYWLHWIKQRPGQGLEWIGYINPRNDYTEYNQNFKDKATLTADKSSSTAYMQLSSLTSEDSAVYYCARRDITTFYWGQGTTLTVSS VL: DIQLTQSPSSLAVSAGENVTMSCKSSQSVLYSANHKNYLAWYQQKPGQSPKLLIYWASTRESGVPDRFTGSGSGTDFTLTISRVQVEDLAIYYCHQYLSSWTFGGGTKLEIK | 0.00137 nM | 2.31e-07 s⁻¹ | 169000 M⁻¹ s⁻¹
humanized LL2 L1 + H9 (antibody, V domains shown, Human IgG1 frameworks; also called H9L1) VH: QVQLVQSGAEVKKPGASVKVSCKASGYTFTSYWLHWVRQAPGQRLEWIGYINPRNDYTEYNQNFKDRVTITADTSASTAYMELSSLRSEDTAVYYCARRDITTFYWGQGTTLTVSS VL: DIVLTQSPDSLAVSAGERVTMNCKSSQSVLYSANHKNYLAWYQQKPGQPPKLLIYWASTRESGVPDRFSGSGSGTDFTLTISSVQAEDVAIYYCHQYLSSWTFGGGTKLEIK | 0.0248 nM | 3.3e-06 s⁻¹ | 133000 M⁻¹ s⁻¹

What follows are binders tested against T2, CD22 (UniProtKB-P20273) on CD22(+) cells (assay: flow cytometry on CD22(+) NALM6 cells).

Binder | MFI (FACS NALM6)
chimeric LL2 antibody (antibody, V domains shown, Murine LL2 variable domains with human constant domains (IgG1)) VH: QVQLQESGAELSKPGASVKMSCKASGYTFTSYWLHWIKQRPGQGLEWIGYINPRNDYTEYNQNFKDKATLTADKSSSTAYMQLSSLTSEDSAVYYCARRDITTFYWGQGTTLTVSS VL: DIQLTQSPSSLAVSAGENVTMSCKSSQSVLYSANHKNYLAWYQQKPGQSPKLLIYWASTRESGVPDRFTGSGSGTDFTLTISRVQVEDLAIYYCHQYLSSWTFGGGTKLEIK | 33.4
humanized LL2 L1 + H9 (antibody, V domains shown, Human IgG1 frameworks; also called H9L1) VH: QVQLVQSGAEVKKPGASVKVSCKASGYTFTSYWLHWVRQAPGQRLEWIGYINPRNDYTEYNQNFKDRVTITADTSASTAYMELSSLRSEDTAVYYCARRDITTFYWGQGTTLTVSS VL: DIVLTQSPDSLAVSAGERVTMNCKSSQSVLYSANHKNYLAWYQQKPGQPPKLLIYWASTRESGVPDRFSGSGSGTDFTLTISSVQAEDVAIYYCHQYLSSWTFGGGTKLEIK | 34.5
humanized LL2 L1 + H1 (antibody, V domains shown, Human IgG1 frameworks) VH: QVQLVESGAEVKKPGASVKMSCKASGYTFTSYWLHWIRQAPGQRLEWIGYINPRNDYTKYSQKFQGRATITADKSASTAYMELSSLRSEDTAVYYCARRDITTFYWGQGTTLTVSS VL: DIVLTQSPDSLAVSAGERVTMNCKSSQSVLYSANHKNYLAWYQQKPGQPPKLLIYWASTRESGVPDRFSGSGSGTDFTLTISSVQAEDVAIYYCHQYLSSWTFGGGTKLEIK | 26.4
humanized LL2 L1 + H7 (antibody, V domains shown, Human IgG1 frameworks) VH: QVQLVESGAEVKKPGASVKVSCKASGYTFTSYWLHWVRQAPGQRLEWMGYINPRNDYTEYNQNFKDRATITRDTSASTAYMELSSLRSEDTAVYYCARRDITTFYWGQGTTLTVSS VL: DIVLTQSPDSLAVSAGERVTMNCKSSQSVLYSANHKNYLAWYQQKPGQPPKLLIYWASTRESGVPDRFSGSGSGTDFTLTISSVQAEDVAIYYCHQYLSSWTFGGGTKLEIK | 21.8
humanized LL2 L1 + H8 (antibody, V domains shown, Human IgG1 frameworks) VH: QVQLVESGAEVKKPGASVKVSCKASGYTFTSYWLHWIRQAPGQRLEWMGYINPRNDYTEYNQNFKDRVTITRDTSASTAYMELSSLRSEDTAVYYCARRDITTFYWGQGTTLTVSS VL: DIVLTQSPDSLAVSAGERVTMNCKSSQSVLYSANHKNYLAWYQQKPGQPPKLLIYWASTRESGVPDRFSGSGSGTDFTLTISSVQAEDVAIYYCHQYLSSWTFGGGTKLEIK | 23.3
humanized LL2 L2 + H3 (antibody, V domains shown, Human IgG1 frameworks) VH: QVQLQQSGAEVKKPGASVKVSCKASGYTFTSYWLHWIRQAPGQRLEWIGYINPRNDYTEYSQKFQGRATLTADTSASTAYMELSSLRSEDTAVYYCARRDITTFYWGQGTTLTVSS VL: DIVLTQSPDSLAVSLGERVTMNCKSSQSVLYSANHKNYLAWYQQKPGQSPKLLIYWASTRESGVPDRFSGSGSGTDFTLTISSVQAEDVAIYYCHQYLSSWTFGGGTKLEIK | 36.8
humanized LL2 L2 + H4 (antibody, V domains shown, Human IgG1 frameworks) VH: QVQLQQSGAEVKKPGASVKMSCKASGYTFTSYWLHWIRQAPGQRLEWMGYINPRNDYTEYNQKFQGRATITADKSASTAYMELSSLRSEDTAVYYCARRDITTFYWGQGTTLTVSS VL: DIVLTQSPDSLAVSLGERVTMNCKSSQSVLYSANHKNYLAWYQQKPGQSPKLLIYWASTRESGVPDRFSGSGSGTDFTLTISSVQAEDVAIYYCHQYLSSWTFGGGTKLEIK | 35.9
humanized LL2 L2 + H5 (antibody, V domains shown, Human IgG1 frameworks) VH: QVQLQESGAEVKKPGASVKVSCKASGYTFTSYWLHWVRQAPGQRLEWIGYINPRNDYTEYSQKFQGRATLTADTSASTAYMELSSLRSEDTAVYYCARRDITTFYWGQGTTLTVSS VL: DIVLTQSPDSLAVSLGERVTMNCKSSQSVLYSANHKNYLAWYQQKPGQSPKLLIYWASTRESGVPDRFSGSGSGTDFTLTISSVQAEDVAIYYCHQYLSSWTFGGGTKLEIK | 40.4
humanized LL2 L2 + H6 (antibody, V domains shown, Human IgG1 frameworks) VH: QVQLQQSGAEVKKPGASVKVSCKASGYTFTSYWLHWIRQAPGQRLEWMGYINPRNDYTEYNQNFKDRVTITRDTSASTAYMELSSLRSEDTAVYYCARRDITTFYWGQGTTLTVSS VL: DIVLTQSPDSLAVSLGERVTMNCKSSQSVLYSANHKNYLAWYQQKPGQSPKLLIYWASTRESGVPDRFSGSGSGTDFTLTISSVQAEDVAIYYCHQYLSSWTFGGGTKLEIK | 36.1
humanized LL2 L2 + H7 (antibody, V domains shown, Human IgG1 frameworks) VH: QVQLVESGAEVKKPGASVKVSCKASGYTFTSYWLHWVRQAPGQRLEWMGYINPRNDYTEYNQNFKDRATITRDTSASTAYMELSSLRSEDTAVYYCARRDITTFYWGQGTTLTVSS VL: DIVLTQSPDSLAVSLGERVTMNCKSSQSVLYSANHKNYLAWYQQKPGQSPKLLIYWASTRESGVPDRFSGSGSGTDFTLTISSVQAEDVAIYYCHQYLSSWTFGGGTKLEIK | 27.3
humanized LL2 L2 + H8 (antibody, V domains shown, Human IgG1 frameworks) VH: QVQLVESGAEVKKPGASVKVSCKASGYTFTSYWLHWIRQAPGQRLEWMGYINPRNDYTEYNQNFKDRVTITRDTSASTAYMELSSLRSEDTAVYYCARRDITTFYWGQGTTLTVSS VL: DIVLTQSPDSLAVSLGERVTMNCKSSQSVLYSANHKNYLAWYQQKPGQSPKLLIYWASTRESGVPDRFSGSGSGTDFTLTISSVQAEDVAIYYCHQYLSSWTFGGGTKLEIK | 26.7
humanized LL2 L2 + H9 (antibody, V domains shown, Human IgG1 frameworks) VH: QVQLVQSGAEVKKPGASVKVSCKASGYTFTSYWLHWVRQAPGQRLEWIGYINPRNDYTEYNQNFKDRVTITADTSASTAYMELSSLRSEDTAVYYCARRDITTFYWGQGTTLTVSS VL: DIVLTQSPDSLAVSLGERVTMNCKSSQSVLYSANHKNYLAWYQQKPGQSPKLLIYWASTRESGVPDRFSGSGSGTDFTLTISSVQAEDVAIYYCHQYLSSWTFGGGTKLEIK | 34.3
humanized LL2 L2 + H10 (antibody, V domains shown, Human IgG1 frameworks) VH: QVQLVQSGAEVKKPGASVKVSCKASGYTFTSYWLHWVRQAPGQRLEWMGYINPRNDYTEYNQNFKDRVTLTADKSASTAYMELSSLRSEDTAVYYCARRDITTFYWGQGTTLTVSS VL: DIVLTQSPDSLAVSLGERVTMNCKSSQSVLYSANHKNYLAWYQQKPGQSPKLLIYWASTRESGVPDRFSGSGSGTDFTLTISSVQAEDVAIYYCHQYLSSWTFGGGTKLEIK | 37
humanized LL2 L2 + H11 (antibody, V domains shown, Human IgG1 frameworks) VH: QVQLVQSGAEVKKPGASVKMSCKASGYTFTSYWLHWVRQAPGQRLEWMGYINPRNDYTEYNQNFKDRATITADTSASTAYMELSSLRSEDTAVYYCARRDITTFYWGQGTTLTVSS VL: DIVLTQSPDSLAVSLGERVTMNCKSSQSVLYSANHKNYLAWYQQKPGQSPKLLIYWASTRESGVPDRFSGSGSGTDFTLTISSVQAEDVAIYYCHQYLSSWTFGGGTKLEIK | 36.3
humanized LL2 L2 + H12 (antibody, V domains shown, Human IgG1 frameworks) VH: QVQLQQSGAEVKKPGASVKMSCKASGYTFTSYWLHWVRQAPGQRLEWMGYINPRNDYTEYNQNFKDRVTITADTSASTAYMELSSLRSEDTAVYYCARRDITTFYWGQGTTLTVSS VL: DIVLTQSPDSLAVSLGERVTMNCKSSQSVLYSANHKNYLAWYQQKPGQSPKLLIYWASTRESGVPDRFSGSGSGTDFTLTISSVQAEDVAIYYCHQYLSSWTFGGGTKLEIK | 31.7
humanized LL2 L2 + H2 (antibody, V domains shown, Human IgG1 frameworks) VH: QVQLQESGAEVKKPGASVKMSCKASGYTFTSYWLHWIRQAPGQRLEWIGYINPRNDYTKYSQKFQGRVTLTRDKSASTAYMELSSLRSEDTAVYYCARRDITTFYWGQGTTLTVSS VL: DIVLTQSPDSLAVSLGERVTMNCKSSQSVLYSANHKNYLAWYQQKPGQSPKLLIYWASTRESGVPDRFSGSGSGTDFTLTISSVQAEDVAIYYCHQYLSSWTFGGGTKLEIK | 28.1
